Measured values published in patent publication US20170304412A1 (YEDA RESEARCH AND DEVELOPMENT, published 2017).
Residue numbers refer to the chain shown, from its start.

T1: MMP7 catalytic domain (UniProt P09237 95-267)
T1 sequence (looked up): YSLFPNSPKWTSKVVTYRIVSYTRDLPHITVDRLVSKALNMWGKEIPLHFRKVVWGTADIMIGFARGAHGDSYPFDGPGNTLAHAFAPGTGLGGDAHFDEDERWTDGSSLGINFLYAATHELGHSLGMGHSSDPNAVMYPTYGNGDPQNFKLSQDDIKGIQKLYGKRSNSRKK

T2: TACE pro-domain R58A mutant
T2 chain: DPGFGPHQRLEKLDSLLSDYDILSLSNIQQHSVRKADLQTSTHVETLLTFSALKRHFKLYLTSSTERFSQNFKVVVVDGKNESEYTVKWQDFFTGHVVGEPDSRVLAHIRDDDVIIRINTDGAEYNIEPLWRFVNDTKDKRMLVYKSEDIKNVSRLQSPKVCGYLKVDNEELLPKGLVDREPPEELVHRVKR

T3: TACE pro-domain (wild type)
T3 chain: T2 chain with A36R

B1: TACE pro-domain (wild type) (other)
chain: T2 chain with A36R
B2: Furin (protein)
chain: DVYQEPTDPKFPQQWYLSGVTQRDLNVKAAWAQGYTGHGIVVSILDDGIEKNHPDLAGNYDPGASFDVNDQDPDPQPRYTQMNDNRHGTRCAGEVAAVANNGVCGVGVAYNARIGGVRMLDGEVTDAVEARSLGLNPNHIHIYSASWGPEDDGKTVDGPARLAEEAFFRGVSQGRGGLGSIFVWASGNGGREHDSCNCDGYTNSIYTLSISSATQFGNVPWYSEACSSTLATTYSSGNQNEKQIVTTDLRQKCTESHTGTSASAPLAAGIIALTLEANKNLTWRDMQHLVVQTSKPAHLNANDWATNGVGRKVSHSYGYGLLDAGAMVALAQNWTTVAPQRKCIIDILTEPKDIGKRLEVRKTVTACLGEPNHITRLEHAQARLTLSYNRRGDLAIHLVSPMGTRSTLLAARPHDYSADGFNDWAFMTTHSWDEDPSGEWVLEIENTSEANNYGTLTKFTLVLYGTA

Key:
TACE catalytic domain = TACE catalytic domain (UniProt P78536 215-477, limits assumed); test: cell-based or functional assay
Sequence of TACE catalytic domain (P78536 215-477 limits assumed): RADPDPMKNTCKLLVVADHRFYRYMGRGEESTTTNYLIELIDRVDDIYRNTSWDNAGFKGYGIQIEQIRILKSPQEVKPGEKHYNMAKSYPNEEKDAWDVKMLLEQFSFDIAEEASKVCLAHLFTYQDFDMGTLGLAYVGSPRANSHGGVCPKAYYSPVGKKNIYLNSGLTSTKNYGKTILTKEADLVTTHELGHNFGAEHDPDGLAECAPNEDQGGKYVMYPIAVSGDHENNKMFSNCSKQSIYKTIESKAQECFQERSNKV

MMP7 catalytic domain = biological target: T1, MMP7 catalytic domain; test: cell-based or functional assay
MMP9 catalytic domain = MMP9 catalytic domain (UniProt P14780 107-444, limits assumed); test: cell-based or functional assay
Sequence of MMP9 catalytic domain (P14780 107-444 limits assumed): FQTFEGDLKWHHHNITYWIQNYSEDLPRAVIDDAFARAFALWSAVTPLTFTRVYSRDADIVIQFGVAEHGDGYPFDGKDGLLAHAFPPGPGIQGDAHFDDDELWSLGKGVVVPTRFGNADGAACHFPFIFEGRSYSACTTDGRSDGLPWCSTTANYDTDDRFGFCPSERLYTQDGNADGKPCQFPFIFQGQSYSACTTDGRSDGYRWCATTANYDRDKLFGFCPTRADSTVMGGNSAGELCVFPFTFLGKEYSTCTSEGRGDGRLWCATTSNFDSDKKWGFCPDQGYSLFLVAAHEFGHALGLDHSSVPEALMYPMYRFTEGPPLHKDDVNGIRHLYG

[1] = biological target: T2, TACE pro-domain R58A mutant
[2] = biological target: T3, TACE pro-domain (wild type)

| Molecule | IC50, proteolytic activity of TACE (TACE catalytic domain) [nM] | IC50, catalytic activity on fluorogenic peptide (TACE catalytic domain) [nM] | IC50, catalytic activity on fluorogenic peptide (MMP7 catalytic domain) [nM] | IC50 relative to the IC50 towards TACE (MMP7 catalytic domain) [fold] | IC50, catalytic activity on fluorogenic peptide (MMP9 catalytic domain) [nM] | IC50 relative to the IC50 towards TACE (MMP9 catalytic domain) [fold] | cleavage by Furin (SDS-PAGE) [1] | cleavage by Furin (SDS-PAGE) [2] |
| --- | --- | --- | --- | --- | --- | --- | --- | --- |
| TACE pro-domain R58A mutant (from UniProt P78536 23-214) | 55 | – | – | – | – | – | – | – |
| B1 | 23 | 119 | 8790 | 80 | 4480 | 40 | – | – |
| B2 | – | – | – | – | – | – | pro-R58A mutant was not cleaved by Furin | Only pro-WT was processed by Furin generating a smaller fragment of ˜17kDa |
